According to the DeepSol protein solubility set:

experiment: soluble on expression in E. coli; label from the status in PepcDB or PDB records

Sequence	soluble on expression in E. coli
MAIIYAVRERTQSKTAMRKVMDYVVQDKKTMYENENGQRCKLVSGQNCCGDTAFKEFMTTKRQYQKEKGVYFYQYIQSFKPGIHATPQEIHQMGVELAKYFKGYEVQIATHIDRDHWHNHLIVNSVSCETGLKLQFNEKNLEQLRTLSDEICAVHGLDTLKPYQKPKQKPMGAGEYRAAVRGGSYKFKLMNAIDQAMTQSRTREEFIVRMEQMGYQVKWNPHHKYITYTTPEGQRCRDNKLHETKYLKTEMEGYFSAKLRRIEAAQQAGYTGGHPTGTTPADRSSALSAAGQRNTHRPMEHDAGEPDRSHTAVAGIDGIHIHPANRRRRKQYDEELLPERLRQADGSPVEYHTERASADYGEYDFEYGEDDGYDWMEADEYTGALGRKAPAPGHVAHKNESQMGRHRGIDFDDIVALAKAVDDLVNPYNPEEEREKKKKYVPKSDHKKQKKKQHHNHDYELSL	soluble
MAIKLIAIDMDGTLLLPDHTISPAVKNAIAAARARGVNVVLTTGRPYAGVHNYLKELHMEQPGDYCITYNGALVQKAADGSTVAQTALSYDDYRFLEKLSREVGSHFHALDRTTLYTANRDISYYTVHESFVATIPLVFCEAEKMDPNTQFLKVMMIDEPAILDQAIARIPQEVKEKYTVLKSAPYFLEILDKRVNKGTGVKSLADVLGIKPEEIMAIGDQENDIAMIEYAGVGVAMDNAIPSVKEVANFVTKSNLEDGVAFAIEKYVLN	not soluble
MAIKVGINGFGRIGRSFFRASWGREEIEIVAINDLTDAKHLAHLLKYDSVHGIFKGSVEAKDDSIVVDGKEIKVFAQKDPSQIPWGDLGVDVVIEATGVFRDRENASKHLQGGAKKVIITAPAKNPDITVVLGVNEEKYNPKEHNIISNASCTTNCLAPCVKVLNEAFGVEKGYMVTVHAYTNDQRLLDLPHKDFRRARAAAINIVPTTTGAAKAIGEVIPELKGKLDGTARRVPVPDGSLIDLTVVVNKAPSSVEEVNEKFREAAQKYRESGKVYLKEILQYCEDPIVSTDIVGNPHSAIFDAPLTQVIDNLVHIAAWYDNEWGYSCRLRDLVIYLAERGL	soluble
MAILKAQHLAKSYKKRKVVSDVSLQVESGQIVGLLGPNGAGKTTSFYMIVGLVARDEGTITIDDNDISILPMHSRSRMGIGYLPQEASIFRKLSVEDNIMAVLQTREELTHEERQDKLEDLLEEFHIQHIRKSAGMALSGGERRRVEIARALAANPQFILLDEPFAGVDPISVIDIKKIIEHLRDRGLGVLITDHNVRETLDVCEKAYIVSQGRLIAEGTPQDVLNNEQVKQVYLGEQFRL	not soluble
MAIMRVNPTRMELTRLKKRLQVARRGHKLLKDKLDELMKQFLDLVRKNKELREKVEEMLMKAHQDFLIARAVMSSEGLEAALMLPKQSISLDVSTQNIMSVEVPVLKFTTSSSDESDIYPYGFASTSGELDGAILTLSKVLPYMLELAQMEKSSQLLAQEIEKTRRRVNALEYVMIPQLTETIKYISMKLDENERGNITRLMKVKDMMLEQAHNFKEKLNEA	soluble
MAIQTVSTKPFANQKPGTSGLRNKVIAFQQPRYLENFVQSIFNSLDDIEGKTLVVGGDGRYYNDVAIQIIVRMAAANGFAKIIVGQNGIFSTPAVSCVIRKYEAFGGIVLSASHNPGGPKGDFGIKYNVSNGGPAPEKITDRIFSETKKINQYFISDAAKESVDLDKLGTYKIENTTVEVINSVIDYAELMQQIFDFDKVRELFAKGFKVRFDSMCAVSGPYAKYIFETLLKAPAGTVVNAQPLEDFGGFHPDPNPVNAEDLVKHMRSGKYDFGAASDGDADRNMIVGKQIDVSPSDSLAIMAANAHLIPVYSKGIKGVARSMPTSTAVDRVAESLRLPCFETPTGWKFFGNLLDAEKITLCGEESYGTGSNHIREKDGVWAVLFWLNLVAVTGKQVDQLVEEHWQKFGRNFYSRHDYEAIDTAIANSIIDSLRERLSSLVGAQLNDEKVAKADDFSYIDPIDGLVSNHQGIRIIFEDGSRIVFRLSGTGTQGATLRIYLEKYESDSSKFSIPTQQALASLIEIAEDLTNIKSLTGMTEPTVVT	not soluble
MAIYYNGLKIESNEEVYEPAEDTFLLAESLLDEVKSDDIVLDVGTGTGILALLAARRARFVVGLDINEKAINLAWKNAKINGIKNVVFILSDLFENIRGTFDLIVFNPPYLPGEEIKDKVDLALIGGKTGGEVISRFLGSVKDYLSSRGRILLIYSSLTGLDVEKAFKERGFSTSIVKRRRFFFEELYVMKAELSSRL	soluble
MAKENYSDPNGKLLNSITTFEVNGEEVKLSGNIIRDYLVSGNAEVTDQEIIMFLQLCKYQKLNPFLNEAYLVKFKNTKGPDKPAQIIVSKEAFMKRAETHEQYDGFEAGIIVERNGEVVEIEGAVSLDKDKLLGGWAKVFRKDRSRPVSVRISEREFNKRQSTWNAMPLTMMRKTAVVNAMREAFPDNLGAMYTEEEQGSLQNNETSVQEEIKQNANTEMLDIPAQQIEVPDFKEIREPEHVEMPPIYDEQPSTPPARPY	not soluble
MAKHEQILVLDPPSDLKFKGPFTDVVTTNLKLQNPSDRKVCFKVKTTAPRRYCVRPNSGIIDPGSIVTVSVMLQPFDYDPNEKSKHKFMVQTIFAPPNISDMEAVWKEAKPDELMDSKLRCVFEMPNENDKLND	soluble
MAKITVGTENQAPIEIYYEDHGTGKPVVLIHGWPLSGRSWEYQVPALVEAGYRVITYDRRGFGKSSQPWEGYEYDTFTSDLHQLLEQLELQNVTLVGFSMGGGEVARYISTYGTDRIEKVVFAGAVPPYLYKSEDHPEGALDDATIETFKSGVINDRLAFLDEFTKGFFAAGDRTDLVSESFRLYNWDIAAGASPKGTLDCITAFSKTDFRKDLEKFNIPTLIIHGDSDATVPFEYSGKLTHEAIPNSKVALIKGGPHGLNATHAKEFNEALLLFLKD	not soluble
MAKIVLVLYDAGKHAADEEKLYGCTENKLGIANWLKDQGHELITTSDEEGGNSVLDQHIPDADIIITTPFHPAYITKERIDKAKKLKLVVVAGVGSDHIDLDYINQTGKKISVLEVTGSNVVSVAEHVVMTMLVLVRNFVPAHEQIINHDWEVAAIAKDAYDIEGKTIATIGAGRIGYRVLERLVPFNPKELLYYDYQALPKDAEEKVGARRVENIEELVAQADIVTVNAPLHAGTKGLINKELLSKFKKGAWLVNTARGAICVAEDVAAALESGQLRGYGGDVWFPQPAPKDHPWRDMRNKYGAGNAMTPHYSGTTLDAQTRYAQGTKNILESFFTGKFDYRPQDIILLNGEYVTKAYGKHDKK	soluble
MAKKTSSKGKLPPGPSPLPVLGNLLQMDRKGLLRSFLRLREKYGDVFTVYLGSRPVVVLCGTDAIREALVDQAEAFSGRGKIAVVDPIFQGYGVIFANGERWRALRRFSLATMRDFGMGKRSVEERIQEEARCLVEELRKSKGALLDNTLLFHSITSNIICSIVFGKRFDYKDPVFLRLLDLFFQSFSLISSFSSQVFELFSGFLKYFPGTHRQIYRNLQEINTFIGQSVEKHRATLDPSNPRDFIDVYLLRMEKDKSDPSSEFHHQNLILTVLSLFFAGTETTSTTLRYGFLLMLKYPHVTERVQKEIEQVIGSHRPPALDDRAKMPYTDAVIHEIQRLGDLIPFGVPHTVTKDTQFRGYVIPKNTEVFPVLSSALHDPRYFETPNTFNPGHFLDANGALKRNEGFMPFSLGKRICLGEGIARTELFLFFTTILQNFSIASPVPPEDIDLTPRESGVGNVPPSYQIRFLARHHHHHH	soluble
MAKLDETLTMLKALTDAKGVPGNEREARDVMKTYIAPYADEVTTDGLGSLIAKKEGKSGGPKVMIAGHLDEVGFMVTQIDDKGFIRFQTLGGWWSQVMLAQRVTIVTKKGDITGVIGSKPPHILPSEARKKPVEIKDMFIDIGATSREEAMEWGVRPGDMIVPYFEFTVLNNEKMLLAKAWDNRIGCAVAIDVLKQLKGVDHPNTVYGVGTVQEEVGLRGARTAAQFIQPDIAFAVDVGIAGDTPGVSEKEAMGKLGAGPHIVLYDATMVSHRGLREFVIEVAEELNIPHHFDAMPGVGTDAGAIHLTGIGVPSLTIAIPTRYIHSHAAILHRDDYENTVKLLVEVIKRLDADKVKQLTFDE	not soluble
MAKNDKINFSTPSGFPEFLPSEKRLELYLLDTIRRVYESYGFTPIETPAVERLEVLQAKGNQGDNIIYGLEPILPPNRQAEKDKSGDTGSEARALKFDQTVPLAAYIARHLNDLTFPFARYQMDVVFRGERAKDGRFRQFRQCDIDVVGREKLSLLYDAQMPAIITEIFEAVNIGDFVIRINNRKVLTGFFQSLNISETQIKSCISIIDNLEKIGEAKVKLELEKEGINPEQTQKIIDFVKIDGSVDDVLDKLKHLSQTLPESEQFNLGVSELETVITGVRNLGVPDKRFCIDLAIARGLNYYTGTVYETTLIGHEALGSICSGGRYEELVGTFIGEKMPGVGISIGLTRLISRLLKAGILNTLPPTPAQVVVVNMQDELMPTYLKVSQQLRQAGLNVITNFEKRQLGKQFQAADKQGIRFCVIIGADEAAAQKSSLKDLQSGEQVEVALADLAEEIKRRLT	soluble
MAKNPKDGESRTFLISVAAELAGMHAQTLRTYDRLGLVSPRRTSGGGRRYSLHDVELLRQVQHLSQDEGVNLAGIKRIIELTSQVEALQSRLQEMAEELAVLRANQRREVAVVPKSTALVVWKPRR	soluble
MAKTTGILDKSLSRGKTEINLSTFAVLFSEMVLYAQNRSETVTDIHDKIASYGKQVGLRMFDIITLREKGYKRETKLLGMLMFIKSTVWKNLFGKEADKLERSNDDHCTYLLIEKDPMVNTYISVPRDKGVLNCAAFAAGIVEAILESASFKCKVTAHWHNGTAYVIQFDESVIARENSLLDSNR	not soluble
MAKVTGTKVITNQVRLSFVHVLEPHAMEEGQEKKYSCMLIIPKDDKETLKAMKEAIKTAYEGAKGDKLKGVKFERLKTTLRDGDEEMDTEERPEFENAMFINVSSKTKPQVVKREDGVLVKTDDPDEVYSGVYAIASINFYAYSTAGNKGVTAGLNNILTLCKGDFLGGRANAESDFGDLEWEDEEDDMFS	not soluble
MAKVTVILTSYNKPNTVGAAIESVLSQSFQDWELWIMDDASNEETQQVIDSYMLYPNVYYYNSQVKDEERHKSTRYATLINEAISRSTGDYLCYLTDDNYYLPERLQKMVQYLERYPSVDVVYSKQLVRTVDNQLITQAERIRPTKGTIRYAENIVDHCSVMHRRSLAEKVYETYGSYWNDDPICWHNGDAFFWNRLSAFALFYPINEVLDVCLKSPTSFQALNAFLPEYLPSGTLVKGLGADVYLIEDNHRRAITPTMFQQLHYREENVVHIPDPVLFKYKEGPAIDEHIWEQGKLFPNHRLIKASQEPHIYYVENHRKRHILTHKEFRLYKFRASEVVEVSRSFLDSIPTGPPISAHVNNQHPLPEGLLVRCGFKFYLSGNNRLYPIKSRVMKKLNLQMKNAVFLDSRAIGRYEQGETIEWKTNKCQPRFNTSSLEHHHHHH	not soluble
MAKYEEAFKRQVVQEYLRGAVGTAGLSQKYGIGRSVIRRWINAWQRHGKSGLRKKHEAYSAEFKLTVLQRMWRDELSYQQVSAVFDLREAGGVSRWDRQYHEGGFDALQPRRKGGAPIMSQSKQDPQPAAQPAQDERSREDLLKENECLRAEVAYLKKLDALLRAKQQQAPKKKRKSLEHHHHHH	not soluble
MALALSLSACSPPLRRTRRAGFRTSCSIFANPAQRAKRKLLELISEEDRGLRTQKDPKKRDEIVNAIESMTVIGRSSITTDDSLSATWRLLWTTEKEQLFIIEKAGLFGTTAGDVLQVIDVNKRILNNVITFPPDGVFFVRSDIDIASPQRVNFRFNSAVLRGKNWELPLPPFGKGWFENVYMDGEIRVAKDIRGDYLIVDRAPYNWTESFV	soluble
